# Laboratory results published in publication PMC2869534.
# System: SNF2h (human)
# Test: Cy3 fluorescence intensity titration
Substance,K half,binding signal (fold lower K1/2 than apo)
"0-601-78 nucleosome, Cy3",353 nM,
"0-601-40 nucleosome, Cy3",,3
